Data on one molecule can be found in PMC7810883, “Phosphorylation-induced changes in the PDZ domain of Dishevelled 3” (Scientific Reports, 2021).

Non-standard residues stand in square brackets, D forms with d. pS = N[C@@H](COP(=O)(O)O)C(=O)O

The target of experiment [1] is T1, PDZ domain of human Dishevelled 3 (DVL3), aa 243-338, wild type (human, UniProt Q92997 243-338).
T1 construct: PDZ domain of human Dishevelled 3 (DVL3), residues 243-338; Cloned in pETM11; also called PDZ wt; hDvl3 PDZ WT domain; source: E. coli BL21(DE3), minimal media (15N or 15N,13C labelling), purified (Ni-NTA, TEV, Q-sepharose, SEC); not shown: His6, N-terminal, cleaved
T1 sequence (looked up): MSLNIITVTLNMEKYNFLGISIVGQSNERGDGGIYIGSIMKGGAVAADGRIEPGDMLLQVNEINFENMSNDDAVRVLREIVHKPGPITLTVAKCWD
Briefly: NMR titration; 1H-15N HSQC of 100 uM 15N-labelled PDZ wt/mutant with increasing amounts of C-terminal peptide (stock 800 uM, up to four-fold over PDZ); 50 mM sodium-phosphate pH 6.5, 50 mM KCl. To be noted: both partners purified.

The target in experiment [2] is T2, PDZ domain of human Dishevelled 3 (DVL3), aa 243-338, S280E (human, UniProt Q92997 243-338, S280E).
T2 construct: PDZ domain of human Dishevelled 3 (DVL3), residues 243-338, phosphomimetic mutant S280E; Made by site-directed mutagenesis of pETM11-PDZ; also called PDZ S280E; source: E. coli BL21(DE3), minimal media (15N or 15N,13C labelling), purified (Ni-NTA, TEV, Q-sepharose, SEC); not shown: His6, N-terminal, cleaved
T2 sequence (looked up): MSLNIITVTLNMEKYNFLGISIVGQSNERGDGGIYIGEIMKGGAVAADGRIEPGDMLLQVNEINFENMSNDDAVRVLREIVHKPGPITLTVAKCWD
Described as above. The following applies: both partners purified.

B1: C-terminal DVL peptide consisting of aa 698-716 from DVL3 with phosphorylated pS700 (peptide, UniProt Q92997 698-716, looked up)
peptide: H-RQ[pS]FRMAMGNPSEFFVDVM-OH
notes: C-terminus of human Dishevelled 3 (DVL3), residues 698-716; The phosphorylation at S700 is told only in the methods; also called C-terminal peptide (698-716); C-terminus ligand
Regarding B1, the binding result in experiment [1] and in experiment [2] was “binds” in each case.
